Experimental findings from patent US20070244048A1 (published 2007) are described below.

No end group written: not given here.

One test addresses T1, mouse NMUR2 (mouse, UniProt Q8BZ39 1-395).
T1 construct: whole, on cells; also called mouse R2
Kind of test: 125I-hNMU-25 displacement, cell membranes.

Another test concerns the target T2, mouse NMUR1-CTG (mouse, UniProt O55040 1-428).
T2 construct: whole, on cells; Cell line with the start codon (CTG) as predicted from genomic databases; also called mouse R1-CTG
T2 sequence (looked up): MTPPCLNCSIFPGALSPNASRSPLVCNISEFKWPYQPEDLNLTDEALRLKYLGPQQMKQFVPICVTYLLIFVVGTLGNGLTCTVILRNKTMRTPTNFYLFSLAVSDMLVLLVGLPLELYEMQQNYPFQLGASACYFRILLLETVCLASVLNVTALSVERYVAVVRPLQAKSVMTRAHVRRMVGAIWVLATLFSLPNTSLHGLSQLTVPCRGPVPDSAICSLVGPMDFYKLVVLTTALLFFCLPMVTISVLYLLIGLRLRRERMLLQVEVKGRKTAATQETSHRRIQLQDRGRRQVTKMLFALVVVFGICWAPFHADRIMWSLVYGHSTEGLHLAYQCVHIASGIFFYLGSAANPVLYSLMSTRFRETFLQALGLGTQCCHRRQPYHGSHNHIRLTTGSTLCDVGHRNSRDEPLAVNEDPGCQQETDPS
Nature of the test: 125I-hNMU-25 displacement, cell membranes.

For a further test, the target named is T3, rat NMUR1-ATG (rat, UniProt Q9JJI5 1-425).
T3 construct: whole, on cells; Cell line with engineered ATG start codon in place of the genomic TTG; also called rat R1-ATG
T3 sequence (looked up): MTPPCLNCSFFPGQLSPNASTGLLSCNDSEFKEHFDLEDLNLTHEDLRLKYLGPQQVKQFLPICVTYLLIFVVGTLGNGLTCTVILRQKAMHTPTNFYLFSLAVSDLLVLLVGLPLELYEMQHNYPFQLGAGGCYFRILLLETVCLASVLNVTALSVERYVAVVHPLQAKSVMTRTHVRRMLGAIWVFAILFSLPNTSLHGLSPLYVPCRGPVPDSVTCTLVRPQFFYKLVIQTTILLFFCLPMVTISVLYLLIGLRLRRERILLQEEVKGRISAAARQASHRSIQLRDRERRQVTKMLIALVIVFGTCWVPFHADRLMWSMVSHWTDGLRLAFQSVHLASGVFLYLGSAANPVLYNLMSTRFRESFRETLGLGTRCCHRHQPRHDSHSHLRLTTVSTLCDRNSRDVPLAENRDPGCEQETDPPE
Nature of the test: 125I-hNMU-25 displacement, cell membranes.

In test [1] the target is T4, human NMUR2 (human, UniProt Q9GZQ4 1-415).
T4 construct: whole, on cells; Stably expressed in cells (FLIPR); also called hNMUR2; human R2
Nature of the test: 125I-hNMU-25 displacement, cell membranes.

The next test has as its target T5, rat NMUR1-TTG (rat, UniProt Q9JJI5 1-425).
T5 construct: whole, on cells; Cell line with the start codon (TTG) as predicted from genomic databases; also called rat R1-TTG
T5 sequence (looked up): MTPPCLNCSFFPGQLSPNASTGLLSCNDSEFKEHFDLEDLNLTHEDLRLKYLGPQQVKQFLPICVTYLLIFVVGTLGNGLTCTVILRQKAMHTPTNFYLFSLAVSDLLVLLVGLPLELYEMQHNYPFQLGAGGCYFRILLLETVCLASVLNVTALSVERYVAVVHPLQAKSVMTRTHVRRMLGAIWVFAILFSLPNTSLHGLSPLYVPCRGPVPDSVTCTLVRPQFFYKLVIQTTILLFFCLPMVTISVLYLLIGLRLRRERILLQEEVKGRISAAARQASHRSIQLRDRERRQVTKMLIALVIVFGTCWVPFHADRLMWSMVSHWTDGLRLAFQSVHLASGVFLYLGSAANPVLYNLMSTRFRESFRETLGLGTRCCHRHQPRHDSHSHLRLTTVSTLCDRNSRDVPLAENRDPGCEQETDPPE
Kind of test: 125I-hNMU-25 displacement, cell membranes.

The target in test [2] is T6, human NMUR1 (human, UniProt Q9HB89 1-426).
T6 construct: whole, on cells; Stably expressed in cells (FLIPR); also called hNMUR1; human R1
T6 sequence (looked up): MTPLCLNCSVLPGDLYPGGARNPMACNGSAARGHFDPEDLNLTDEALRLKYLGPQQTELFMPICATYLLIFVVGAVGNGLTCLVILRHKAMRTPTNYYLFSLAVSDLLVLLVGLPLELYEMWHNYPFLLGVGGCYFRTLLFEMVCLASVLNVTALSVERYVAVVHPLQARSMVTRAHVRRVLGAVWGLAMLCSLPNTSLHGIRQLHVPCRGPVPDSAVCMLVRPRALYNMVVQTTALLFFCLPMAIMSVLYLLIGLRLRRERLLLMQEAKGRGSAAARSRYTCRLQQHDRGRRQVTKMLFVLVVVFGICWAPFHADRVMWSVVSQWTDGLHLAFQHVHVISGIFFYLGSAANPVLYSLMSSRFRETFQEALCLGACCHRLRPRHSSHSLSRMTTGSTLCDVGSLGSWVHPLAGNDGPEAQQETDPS
Nature of the test: 125I-hNMU-25 displacement, cell membranes.

For the next test, the target named is T7, mouse NMUR1-ATG (mouse, UniProt O55040 1-428).
T7 construct: whole, on cells; Cell line with engineered ATG start codon in place of the genomic CTG; also called mouse R1-ATG
T7 sequence (looked up): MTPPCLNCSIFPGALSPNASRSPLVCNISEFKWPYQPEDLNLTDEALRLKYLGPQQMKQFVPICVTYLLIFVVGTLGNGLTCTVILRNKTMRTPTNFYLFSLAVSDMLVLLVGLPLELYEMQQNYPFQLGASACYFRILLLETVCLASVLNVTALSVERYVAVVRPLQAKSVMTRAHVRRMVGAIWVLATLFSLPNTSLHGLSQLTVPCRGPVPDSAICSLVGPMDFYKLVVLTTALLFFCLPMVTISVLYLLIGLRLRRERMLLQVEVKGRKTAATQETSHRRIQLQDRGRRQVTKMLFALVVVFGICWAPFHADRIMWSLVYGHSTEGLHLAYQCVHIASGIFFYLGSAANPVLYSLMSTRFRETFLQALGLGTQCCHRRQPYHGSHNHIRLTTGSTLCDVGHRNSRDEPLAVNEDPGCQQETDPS
Nature of the test: 125I-hNMU-25 displacement, cell membranes.

The target in the next test is T8, rat NMUR2 (rat, UniProt Q9ESQ4 1-395).
T8 construct: whole, on cells; also called rat R2
Kind of test: 125I-hNMU-25 displacement, cell membranes.

The target of test [3] is T4, human NMUR2. Nature of the test: cell-based or functional assay.
The target of test [4] is T6, human NMUR1. Kind of test: cell-based or functional assay.
The target of test [5] is T4, human NMUR2. Kind of test: 125I-hNMU-25 displacement, HEK cell membranes. The procedure, abridged:
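HEK cell membranes (2-5 μg) incubated with […] ¹²⁵I-hNMU-25 and peptides for 80 min at room temperature in TrisCl pH 7.4 buffer with MgCl₂, EDTA, bacitracin and phosphoramidon. Bound ligand collected by filtration and scintillation counting; nonspecific binding with 1 μM hNMU-25. IC₅₀ from curve fitting.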

T4 sequence (Q9GZQ4 whole entry): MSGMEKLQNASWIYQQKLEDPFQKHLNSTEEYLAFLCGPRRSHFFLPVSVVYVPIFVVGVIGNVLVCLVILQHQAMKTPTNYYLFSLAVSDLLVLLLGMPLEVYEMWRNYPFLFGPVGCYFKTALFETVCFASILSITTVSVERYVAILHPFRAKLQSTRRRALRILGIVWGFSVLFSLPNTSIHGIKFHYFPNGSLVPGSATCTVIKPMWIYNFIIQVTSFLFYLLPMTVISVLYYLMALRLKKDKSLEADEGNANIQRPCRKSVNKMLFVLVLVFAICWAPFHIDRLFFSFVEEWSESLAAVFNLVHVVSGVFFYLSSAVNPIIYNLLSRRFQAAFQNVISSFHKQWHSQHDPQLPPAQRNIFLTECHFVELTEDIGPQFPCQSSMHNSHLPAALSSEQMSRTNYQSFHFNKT
T8 sequence (Q9ESQ4 whole entry): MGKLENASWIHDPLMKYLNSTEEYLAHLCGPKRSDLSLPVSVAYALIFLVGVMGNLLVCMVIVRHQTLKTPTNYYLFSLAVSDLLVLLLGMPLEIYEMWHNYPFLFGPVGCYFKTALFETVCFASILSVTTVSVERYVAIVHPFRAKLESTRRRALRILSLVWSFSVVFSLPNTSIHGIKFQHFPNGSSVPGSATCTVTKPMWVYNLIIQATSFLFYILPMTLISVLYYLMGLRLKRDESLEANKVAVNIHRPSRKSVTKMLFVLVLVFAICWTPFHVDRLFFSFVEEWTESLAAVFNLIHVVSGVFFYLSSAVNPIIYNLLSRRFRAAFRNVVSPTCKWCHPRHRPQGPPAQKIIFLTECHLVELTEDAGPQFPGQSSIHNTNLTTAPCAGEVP
T1 sequence (Q8BZ39 whole entry): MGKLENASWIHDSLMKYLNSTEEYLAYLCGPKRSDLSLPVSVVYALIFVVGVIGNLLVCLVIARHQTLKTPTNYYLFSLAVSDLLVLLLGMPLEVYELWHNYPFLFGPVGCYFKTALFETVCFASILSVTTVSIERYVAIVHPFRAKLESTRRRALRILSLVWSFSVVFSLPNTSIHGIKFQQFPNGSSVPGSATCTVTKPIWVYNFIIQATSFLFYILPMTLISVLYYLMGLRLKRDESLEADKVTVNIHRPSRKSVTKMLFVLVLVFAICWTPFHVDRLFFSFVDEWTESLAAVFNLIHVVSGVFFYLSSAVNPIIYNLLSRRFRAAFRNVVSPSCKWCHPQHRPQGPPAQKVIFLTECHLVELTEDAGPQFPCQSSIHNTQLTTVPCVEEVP

Take FRVDEEFQSPFASQSRGYFLFRPRN-NH2 (also called hNMU-25; native hNMU) [human NMU-25]: the IC50 (usually the concentration needed to halve the response being measured) came out at 0.2 nM with mouse NMUR2; 0.15 nM with mouse NMUR1-CTG; 1.2 nM with rat NMUR1-ATG; 0.056 nM in the test with human NMUR2 [1]; 0.2 nM in the test with rat NMUR1-TTG; 0.14 nM with human NMUR1 [2]. Besides, the values for the IC50 with mouse NMUR1-ATG, with rat NMUR2 and with human NMUR2 [5] were 0.4 nM, 0.6 nM and 0.19 nM, respectively. The “% activity” value with human NMUR2 [3] and with human NMUR1 [4] was 100% in each case. Moreover, the EC50 – broadly, the concentration that produces a half-maximal response – with human NMUR2 [3] is 1.5 nM; in the test with human NMUR1 [4], 5.5 nM. Moreover, in the test with human NMUR2 [5], the “% activity (binding)” value came to 100%.
